According to patent US20250346904A1, “CCR5 and CD4 siRNA-TARGETED PHOSPHOLIPID NANOSOMES THERAPEUTICS FOR TREATMENT OF HIV-1 AND OTHER DISEASES” (priority 2024, published 2025):

B1: RANTES: CCL5, a CC chemokine with a molecular weight of 7,900, natural ligand of CCR5; unencapsulated in Table 13 (protein, UniProt P13501 24-91, looked up)
C-C motif chemokine 5: SPYSSDTTPCCFAYIARPLPRAHIKEYFYTSGKCSNPAVVFVTRKNRQVCANPEKKWVREYINSLEMS
modifications: ends and bridges not checked

Assays:
[1] = system: HIV-1RF virus (NIH ARP Cat #2804, dual-tropic); experiment: Knockdown by BFU assay on P4/R5 cells, HIV-1RF, log dilutions (RNA-I-47); format: cell-based; conditions: Human immunodeficiency virus 1, P4/R5, each drug as part of the Raltegravir + Efavirenz cocktail, read-out: Inhibitory Dose 50 (ID50) of the cocktail
Protocol: MAGI P4/R5 cells carry the β-galactosidase gene under control of the HIV LTRs (Long Terminal Repeats). […] Briefly, 96 well plates of MAGI P4/R5 cells were infected with HIV-1 and fixed 2-3 days post infection with a fixative containing 1% formaldehyde and 0.2% glutaraldehyde. Fixed cells were washed with PBS (Phosphate Buffered Saline) and stained for β-galactosidase activity using X-gal at 1 mg/mL in PBS with 5 mM potassium ferricyanide and 5 mM potassium ferrocyanide as per published procedures. The cells were usually stained 3 hours to overnight, the number of blue foci counted under the microscope and reported as Blue Focus-forming Units (BFUs).
In this study (RNA-I-47), 8 siRNA nanosomal formulations and 2 controls were evaluated for HIV-1 inhibition on P4/R5 cells using the BFU assay. The test formulations were the same 3 CD4_siRNAs, 3 CCR5_siRNAs, RANTES protein alone and RANTES protein co-encapsulated with a CCR5_siRNA in phospholipid nanosomes, tested previously in RNA-I-50b and RNA-I-51. The HIV-1 virus used was NIH ARP Cat #2804, a member of a panel HIV-1RF viruses and is dual-tropic with the ability to infect both CCR5 and CXCR4 receptor expressing cells.
This study was similar to the previous studies with a few differences. […]

HIV-1 RF, NIH Cat #2804 = experiment: Knockdown by BFU assay, HIV-1 RF, with and without lipofectamine (RNA-I-61); format: cell-based; conditions: Naked (unencapsulated), Presence of Lipofectamine
Protocol: A knockdown study (RNA-I-61) of the 8 nanoencapsulated and the corresponding unencapsulated (naked) siRNA preparations along with two controls described in the previous experiments was performed using freshly reconstituted materials with HIV-1 RF, NIH Cat #2804, diluted to contain ˜100 Blue Focus forming Units (BFUs) per dose of inoculum. […] The objective of this experiment was to test a range of concentrations of the inhibitors to determine the ID50 for each preparation based on the siRNA content. Since the nanosomal materials were freshly reconstituted, they were recharacterized.
The reconstituted samples as well as the naked siRNA preparations were tested for virus infection inhibitory activity. The inhibition of infectivity was measured by counting the number of blue foci due to the induced B-galactosidase activity in the host MAGI P4/R5 cells by the infecting HIV. […] The number of BFUs for each treatment at various dilutions were used to calculate the % inhibition from the corresponding dilution for the Negative_siRNA samples. The inhibitor activity was also quantified by measuring the p24 antigen concentration in each of the wells.
Infectivity Assay by BFUs: The percent inhibitions obtained with various Nanosomal_siRNA formulations versus Negative_siRNA formulations in the presence of lipofectamine are listed in Table 12.
50% Inhibitory Dose (ID50) Values: The data from RNA quantification using gel analysis and the infectivity results were used to plot dose response curves and calculate the ID50 (a.k.a. Inhibitory Concentration that results in 50% inhibition, [IC50]) values.

Molecule | IC50 [1] | Inhibition of BFUs by Naked_siRNA vs Negative_siRNA (HIV-1 RF, NIH Cat #2804; treatment dilution 1) | Inhibition of BFUs by Naked_siRNA vs Negative_siRNA (HIV-1 RF, NIH Cat #2804; treatment dilution 5) | Inhibition of BFUs by Naked_siRNA vs Negative_siRNA (HIV-1 RF, NIH Cat #2804; treatment dilution 15) | Inhibition of BFUs by Naked_siRNA vs Negative_siRNA (HIV-1 RF, NIH Cat #2804; treatment dilution 45) | Inhibition of BFUs by Naked_siRNA vs Negative_siRNA (HIV-1 RF, NIH Cat #2804; treatment dilution 135)
O=C1Nc2ccc(Cl)cc2[C@@](C#CC2CC2)(C(F)(F)F)O1 [Efavirenz] | 0.16 nM | – | – | – | – | –
B1 | – | 0% | 34% | 18% | 0% | 0%
